# Experimental data: article PMC13397619
# B1: NLV2 TCR alpha chain (CDR3α only) (parent)
# chain: AGPMKTSYDKVI
# partner: NLVGMVATV
# Variants of: B1
# Assay: T-Switch: Jurkat TCRβ−/− cells expressing a CDR3 saturation-mutagenesis library, stained with two peptide-HLA-A*02:01 tetramers (original and novel peptide) plus anti-CD3, FACS-sorted into four gates, gDNA sequenced
# Details: with HLA-A*02:01 with peptide … (NLV 2-2, the original bait), tetramers 1 µg/mL, 30 min on ice, DP and SW gates expanded about 10 days between rounds ('two to three rounds of selection' in the Methods), gate SP: higher = more of the variant in the gate that binds the original peptide and not the novel one = retained original binding. Fold enrichment of the CDR3 variant in one FACS gate of a two-tetra, unresolved parent, parent is a CDR3 fragment, scale: fold enrichment, numbering: sequential-on-construct, sequence …
row,Variant,enrichment
1,[…] (CDR3 as printed); D9T derived by comparing it with the table's wild-type CDR3 AGPMKTSYDKVI,0
2,[…] (CDR3 as printed); I12D derived by comparing it with the table's wild-type CDR3 AGPMKTSYDKVI,0
3,[…] (CDR3 as printed); K10C derived by comparing it with the table's wild-type CDR3 AGPMKTSYDKVI,0.162
4,[…] (CDR3 as printed); V11R derived by comparing it with the table's wild-type CDR3 AGPMKTSYDKVI,0
5,[…] (CDR3 as printed); M4C derived by comparing it with the table's wild-type CDR3 AGPMKTSYDKVI,0
6,[…] (CDR3 as printed); K5V derived by comparing it with the table's wild-type CDR3 AGPMKTSYDKVI,1.08
7,[…] (CDR3 as printed); T6D derived by comparing it with the table's wild-type CDR3 AGPMKTSYDKVI,0
8,[…] (CDR3 as printed); K10S derived by comparing it with the table's wild-type CDR3 AGPMKTSYDKVI,0
9,[…] (CDR3 as printed); K5Q derived by comparing it with the table's wild-type CDR3 AGPMKTSYDKVI,7.86
10,[…] (CDR3 as printed); P3E derived by comparing it with the table's wild-type CDR3 AGPMKTSYDKVI,0.526
11,[…] (CDR3 as printed); S7W derived by comparing it with the table's wild-type CDR3 AGPMKTSYDKVI,0
12,[…] (CDR3 as printed); D9G derived by comparing it with the table's wild-type CDR3 AGPMKTSYDKVI,0
13,[…] (CDR3 as printed); V11M derived by comparing it with the table's wild-type CDR3 AGPMKTSYDKVI,0
14,[…] (CDR3 as printed); G2W derived by comparing it with the table's wild-type CDR3 AGPMKTSYDKVI,0
15,[…] (CDR3 as printed); G2Q derived by comparing it with the table's wild-type CDR3 AGPMKTSYDKVI,0
16,[…] (CDR3 as printed); T6L derived by comparing it with the table's wild-type CDR3 AGPMKTSYDKVI,0
17,[…] (CDR3 as printed); P3D derived by comparing it with the table's wild-type CDR3 AGPMKTSYDKVI,0
18,[…] (CDR3 as printed); A1Y derived by comparing it with the table's wild-type CDR3 AGPMKTSYDKVI,0.416
19,[…] (CDR3 as printed); Y8N derived by comparing it with the table's wild-type CDR3 AGPMKTSYDKVI,0
20,[…] (CDR3 as printed); K10V derived by comparing it with the table's wild-type CDR3 AGPMKTSYDKVI,0
21,[…] (CDR3 as printed); A1F derived by comparing it with the table's wild-type CDR3 AGPMKTSYDKVI,2.07

row,Variant,enrichment
1,[…] (CDR3 as printed); M4G derived by comparing it with the table's wild-type CDR3 AGPMKTSYDKVI,0
2,[…] (CDR3 as printed); M4Q derived by comparing it with the table's wild-type CDR3 AGPMKTSYDKVI,5.77
3,[…] (CDR3 as printed); K10P derived by comparing it with the table's wild-type CDR3 AGPMKTSYDKVI,0
4,[…] (CDR3 as printed); M4K derived by comparing it with the table's wild-type CDR3 AGPMKTSYDKVI,0.788
5,[…] (CDR3 as printed); P3F derived by comparing it with the table's wild-type CDR3 AGPMKTSYDKVI,0
6,[…] (CDR3 as printed); P3I derived by comparing it with the table's wild-type CDR3 AGPMKTSYDKVI,1.59
7,[…] (CDR3 as printed); M4A derived by comparing it with the table's wild-type CDR3 AGPMKTSYDKVI,8.93
8,[…] (CDR3 as printed); Y8W derived by comparing it with the table's wild-type CDR3 AGPMKTSYDKVI,0
9,[…] (CDR3 as printed); K10D derived by comparing it with the table's wild-type CDR3 AGPMKTSYDKVI,0
10,[…] (CDR3 as printed); I12T derived by comparing it with the table's wild-type CDR3 AGPMKTSYDKVI,0
11,[…] (CDR3 as printed); D9E derived by comparing it with the table's wild-type CDR3 AGPMKTSYDKVI,0
12,[…] (CDR3 as printed); K5T derived by comparing it with the table's wild-type CDR3 AGPMKTSYDKVI,4.91
13,[…] (CDR3 as printed); Y8A derived by comparing it with the table's wild-type CDR3 AGPMKTSYDKVI,0
14,[…] (CDR3 as printed); S7A derived by comparing it with the table's wild-type CDR3 AGPMKTSYDKVI,3.32
15,[…] (CDR3 as printed); A1G derived by comparing it with the table's wild-type CDR3 AGPMKTSYDKVI,0
16,[…] (CDR3 as printed); I12R derived by comparing it with the table's wild-type CDR3 AGPMKTSYDKVI,0
17,[…] (CDR3 as printed); G2T derived by comparing it with the table's wild-type CDR3 AGPMKTSYDKVI,10.1
18,[…] (CDR3 as printed); P3G derived by comparing it with the table's wild-type CDR3 AGPMKTSYDKVI,0
19,[…] (CDR3 as printed); P3A derived by comparing it with the table's wild-type CDR3 AGPMKTSYDKVI,0
20,[…] (CDR3 as printed); Y8C derived by comparing it with the table's wild-type CDR3 AGPMKTSYDKVI,0
21,[…] (CDR3 as printed); A1I derived by comparing it with the table's wild-type CDR3 AGPMKTSYDKVI,0.473

row,Variant,enrichment
1,[…] (CDR3 as printed); V11Y derived by comparing it with the table's wild-type CDR3 AGPMKTSYDKVI,0
2,[…] (CDR3 as printed); S7F derived by comparing it with the table's wild-type CDR3 AGPMKTSYDKVI,0
3,[…] (CDR3 as printed); G2S derived by comparing it with the table's wild-type CDR3 AGPMKTSYDKVI,0
4,[…] (CDR3 as printed); S7L derived by comparing it with the table's wild-type CDR3 AGPMKTSYDKVI,0
5,[…] (CDR3 as printed); K5R derived by comparing it with the table's wild-type CDR3 AGPMKTSYDKVI,0
6,[…] (CDR3 as printed); D9F derived by comparing it with the table's wild-type CDR3 AGPMKTSYDKVI,0
7,[…] (CDR3 as printed); S7M derived by comparing it with the table's wild-type CDR3 AGPMKTSYDKVI,0
8,[…] (CDR3 as printed); I12K derived by comparing it with the table's wild-type CDR3 AGPMKTSYDKVI,8.2
9,[…] (CDR3 as printed); D9C derived by comparing it with the table's wild-type CDR3 AGPMKTSYDKVI,0
10,[…] (CDR3 as printed); A1V derived by comparing it with the table's wild-type CDR3 AGPMKTSYDKVI,0
11,[…] (CDR3 as printed); A1K derived by comparing it with the table's wild-type CDR3 AGPMKTSYDKVI,0
12,[…] (CDR3 as printed); D9A derived by comparing it with the table's wild-type CDR3 AGPMKTSYDKVI,0
13,[…] (CDR3 as printed); V11K derived by comparing it with the table's wild-type CDR3 AGPMKTSYDKVI,0
14,[…] (CDR3 as printed); P3Q derived by comparing it with the table's wild-type CDR3 AGPMKTSYDKVI,0
15,[…] (CDR3 as printed); P3R derived by comparing it with the table's wild-type CDR3 AGPMKTSYDKVI,0
16,[…] (CDR3 as printed); K10I derived by comparing it with the table's wild-type CDR3 AGPMKTSYDKVI,0
17,[…] (CDR3 as printed); T6I derived by comparing it with the table's wild-type CDR3 AGPMKTSYDKVI,9.21
18,[…] (CDR3 as printed); I12W derived by comparing it with the table's wild-type CDR3 AGPMKTSYDKVI,0
19,[…] (CDR3 as printed); A1W derived by comparing it with the table's wild-type CDR3 AGPMKTSYDKVI,0
20,[…] (CDR3 as printed); I12N derived by comparing it with the table's wild-type CDR3 AGPMKTSYDKVI,0.107
21,[…] (CDR3 as printed); G2N derived by comparing it with the table's wild-type CDR3 AGPMKTSYDKVI,0

row,Variant,enrichment
1,[…] (CDR3 as printed); P3N derived by comparing it with the table's wild-type CDR3 AGPMKTSYDKVI,0.173
2,[…] (CDR3 as printed); K5A derived by comparing it with the table's wild-type CDR3 AGPMKTSYDKVI,23.5
3,[…] (CDR3 as printed); D9V derived by comparing it with the table's wild-type CDR3 AGPMKTSYDKVI,0
4,[…] (CDR3 as printed); G2E derived by comparing it with the table's wild-type CDR3 AGPMKTSYDKVI,0.387
5,[…] (CDR3 as printed); M4V derived by comparing it with the table's wild-type CDR3 AGPMKTSYDKVI,18.1
6,[…] (CDR3 as printed); K5Y derived by comparing it with the table's wild-type CDR3 AGPMKTSYDKVI,0
7,[…] (CDR3 as printed); D9P derived by comparing it with the table's wild-type CDR3 AGPMKTSYDKVI,0
8,[…] (CDR3 as printed); S7Y derived by comparing it with the table's wild-type CDR3 AGPMKTSYDKVI,0
9,[…] (CDR3 as printed); S7P derived by comparing it with the table's wild-type CDR3 AGPMKTSYDKVI,0
10,[…] (CDR3 as printed); D9I derived by comparing it with the table's wild-type CDR3 AGPMKTSYDKVI,0
11,[…] (CDR3 as printed); K5I derived by comparing it with the table's wild-type CDR3 AGPMKTSYDKVI,3.95
12,[…] (CDR3 as printed); M4H derived by comparing it with the table's wild-type CDR3 AGPMKTSYDKVI,2.65
13,[…] (CDR3 as printed); G2K derived by comparing it with the table's wild-type CDR3 AGPMKTSYDKVI,0
14,[…] (CDR3 as printed); G2C derived by comparing it with the table's wild-type CDR3 AGPMKTSYDKVI,0
15,[…] (CDR3 as printed); M4W derived by comparing it with the table's wild-type CDR3 AGPMKTSYDKVI,0
16,[…] (CDR3 as printed); G2R derived by comparing it with the table's wild-type CDR3 AGPMKTSYDKVI,0
17,[…] (CDR3 as printed); S7D derived by comparing it with the table's wild-type CDR3 AGPMKTSYDKVI,0
18,[…] (CDR3 as printed); P3M derived by comparing it with the table's wild-type CDR3 AGPMKTSYDKVI,0
19,[…] (CDR3 as printed); Y8R derived by comparing it with the table's wild-type CDR3 AGPMKTSYDKVI,0
20,[…] (CDR3 as printed); V11D derived by comparing it with the table's wild-type CDR3 AGPMKTSYDKVI,0.11
21,[…] (CDR3 as printed); T6K derived by comparing it with the table's wild-type CDR3 AGPMKTSYDKVI,0
